Laboratory results reported in patent US20240287172A1 (SCIRHOM, published 2024).

T1: hiR2-FL-S561A-T7 (human, UniProt Q6PJF5 1-856)
T1 sequence: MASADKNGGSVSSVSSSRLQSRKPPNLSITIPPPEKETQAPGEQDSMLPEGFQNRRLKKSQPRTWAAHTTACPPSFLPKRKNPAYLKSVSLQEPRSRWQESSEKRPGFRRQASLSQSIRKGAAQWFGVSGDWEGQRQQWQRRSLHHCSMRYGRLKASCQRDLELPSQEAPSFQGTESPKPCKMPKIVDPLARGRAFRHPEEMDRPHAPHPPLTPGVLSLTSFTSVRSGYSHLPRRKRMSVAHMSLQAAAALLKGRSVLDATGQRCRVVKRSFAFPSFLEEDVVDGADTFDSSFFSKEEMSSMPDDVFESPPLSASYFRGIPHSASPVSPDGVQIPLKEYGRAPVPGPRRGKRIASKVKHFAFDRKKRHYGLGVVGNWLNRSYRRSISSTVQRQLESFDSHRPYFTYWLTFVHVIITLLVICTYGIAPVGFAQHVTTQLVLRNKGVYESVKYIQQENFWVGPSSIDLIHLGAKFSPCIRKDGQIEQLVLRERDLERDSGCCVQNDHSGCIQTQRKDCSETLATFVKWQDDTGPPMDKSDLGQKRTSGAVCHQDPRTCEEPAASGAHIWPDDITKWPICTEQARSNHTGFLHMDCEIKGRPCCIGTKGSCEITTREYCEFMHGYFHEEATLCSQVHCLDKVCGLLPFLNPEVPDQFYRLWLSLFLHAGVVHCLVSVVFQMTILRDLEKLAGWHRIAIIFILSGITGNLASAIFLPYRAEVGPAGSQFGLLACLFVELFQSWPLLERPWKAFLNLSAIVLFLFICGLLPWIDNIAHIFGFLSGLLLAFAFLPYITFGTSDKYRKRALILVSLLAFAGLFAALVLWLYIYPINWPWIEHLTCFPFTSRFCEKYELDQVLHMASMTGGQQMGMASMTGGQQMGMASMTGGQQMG

T2: hiR2-FL-W526A-T7 (human, UniProt Q6PJF5 1-856)
T2 sequence: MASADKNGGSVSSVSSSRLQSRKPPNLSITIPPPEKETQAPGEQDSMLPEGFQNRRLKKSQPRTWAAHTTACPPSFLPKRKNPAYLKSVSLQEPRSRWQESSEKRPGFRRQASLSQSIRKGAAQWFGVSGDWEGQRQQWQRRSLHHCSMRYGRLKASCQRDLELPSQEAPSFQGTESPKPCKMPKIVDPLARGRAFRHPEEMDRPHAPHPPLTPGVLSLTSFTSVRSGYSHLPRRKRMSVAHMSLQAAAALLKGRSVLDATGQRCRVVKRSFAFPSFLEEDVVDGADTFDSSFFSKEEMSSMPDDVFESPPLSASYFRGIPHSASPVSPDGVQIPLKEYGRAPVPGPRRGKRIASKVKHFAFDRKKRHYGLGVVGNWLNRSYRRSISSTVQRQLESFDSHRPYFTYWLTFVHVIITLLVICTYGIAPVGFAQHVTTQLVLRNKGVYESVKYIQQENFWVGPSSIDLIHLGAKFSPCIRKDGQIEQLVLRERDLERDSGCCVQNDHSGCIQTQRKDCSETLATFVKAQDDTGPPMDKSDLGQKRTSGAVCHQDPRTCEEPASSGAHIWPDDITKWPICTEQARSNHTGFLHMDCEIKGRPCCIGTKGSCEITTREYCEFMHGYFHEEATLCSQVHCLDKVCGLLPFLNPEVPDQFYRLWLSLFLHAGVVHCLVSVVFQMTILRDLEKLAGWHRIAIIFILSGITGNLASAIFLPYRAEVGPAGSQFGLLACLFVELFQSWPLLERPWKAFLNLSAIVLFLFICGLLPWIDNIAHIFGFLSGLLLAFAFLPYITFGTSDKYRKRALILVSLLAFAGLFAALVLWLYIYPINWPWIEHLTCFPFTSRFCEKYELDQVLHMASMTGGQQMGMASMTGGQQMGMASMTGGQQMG


What was measured:
[1] = target: T1, hiR2-FL-S561A-T7; experiment: FACS on MEF-DKO cells expressing the variant, 3 µg/ml antibody
Method: (§1) To pellet cells and remove supernatants, the plates were centrifuged at 1,500 rpm and 4° C. for 3 minutes. For primary staining, cells were resuspended in 100 μl per well of either FACS buffer alone (controls) or the purified antibodies 3, 5, 16, 22, 34, 42, 43, 44, 48, and 50 of the invention at 3 μg/ml in FACS buffer and incubated on ice for 1 hour. Afterwards, plates were centrifuged at 1,500 rpm and 4° C. for 3 minutes and washed twice with 200 μl per well of FACS buffer. For secondary staining, cells were spun down and resuspended in 100 μl per well of PE-conjugated goat anti-mouse IgG F(ab′)2 detection fragment (Dianova, Germany) diluted 1:100 in FACS buffer. Protected from light, the cell suspensions were incubated on ice for 1 hour. Plates were then centrifuged at 1,500 rpm and 4° C. for 3 minutes and washed three times with 200 μl per well of FACS buffer. Finally, cells were resuspended in 150 μl per well of FACS buffer and analyzed using a BD Accuri™ C6 Plus flow cytometer (Becton Dickinson, Germany).

[2] = target: T2, hiR2-FL-W526A-T7; experiment: as above
Method: as §1

Row | Binder | loss of binding vs wild type [1] [%] | loss of binding vs wild type [2] [%]
1 | antibody 3 (antibody, V domains shown, mouse IgG, kappa light chain; also called clone #3; purified antibody 3) VH: QVTLKESGPGILQPSQTLSLTCSFSGFSLTTFAMGIGWVRQPSGKGLEWLAHIWWDGEKYNNPVLKSRLTISKDTSKNQVFLRIANVDTPDTATYYCARISSIYYIIDNWGQGTSVTVSS VL: DIVLTQSPATLSVTPGHSVSLSCRASQSISNNLHWYQKKSHESPRLLIKYVSQSISGIPSRFSGSGSGTDFTLSINSVETEDFGMYFCQQSYNWPLTFGAGTKLELK | ≥ 30 | ≥ 30
2 | antibody 34 (antibody, V domains shown, mouse IgG, kappa light chain; also called clone #34; purified antibody 34) VH: QVTLKESGPGILQPSQTLSLTCSFSGFSLSTFSLGVGWIRQSSGKGLEWLAHIWWDDEKYYNPALKSRLTISKDTSKNQVFLKIANVDAADTATYYCARAYYSKSYYALDYWGQGTSVTVSS VL: DIQMTQSPSSLSASLGERVSLTCRASQEISGYLSWLQQKPDGTIKRLIYAASTLDSGVPKRFSGSRSGSDYSLAISSLESEDFADYYCLQYANFPFTFGSGTKLEIK | ≥ 30 | ≥ 60
3 | antibody 48 (antibody, V domains shown, mouse IgG, kappa light chain; also called clone #48; purified antibody 48) VH: QVQLQQSGTELVRPGTSVKVSCKASGYAFTNYLIEWVKQRPGQGLEWIGVINPGSGFTKYNEKFKGKATLTADKSSSTVYMHLSSLTSEDSAVYFCARGLYRAMDYWGQGTSVTVSS VL: DIQMTQSPASQSASLGESVTITCLASQTIATWLAWYQQKPGKSPQLLIYGATTLADGVPSRFSGGGSGTKFSFKISSLQAEDFVSYYCQQLYSTPYTFGGGTKLEIK | – | ≥ 30
4 | antibody 50 (antibody, V domains shown, mouse IgG, kappa light chain; also called clone #50; purified antibody 50) VH: QVQLQQSGAELVRPGASVKVSCKASGYAFSNYLIEWVKQRPGQGLEWIGVINPGSGFTKYNEKFKGKATLTADKSSSTAYMQLSSLTSEDSAVYFCARGLYRAMDYWGQGTSVTVSS VL: DIQMTQSPASQSASLGESVTITCLASQTIGTWLAWYQQKPGKSPQLLIYAAASLADGVPSRFSGGGSGTKFSFKISSLQAEDFVNYYCQQIYSTPYTFGGGTKLEIK | – | ≥ 30
5 | antibody 5 (antibody, V domains shown, mouse IgG, kappa light chain; also called clone #5; purified antibody 5) VH: QVTLKESGPGILQPSQTLSLTCSFSGFSLSTFGMGVGWIRQPSGKGLEWLAHIWWDDEKYYNSALKSRLTISKATSKNQAFLKIANVDTADTATYYCARISNYGSNYWYFNVWGTGTTVTVSS VL: QVVLTQSPALMSASPGEKVTMTCSAGSSVSCMYWYQQKPGSSPRVLIYDTSNLASGVPARFTGSGSGTSYSLTISRMEAEDAASYYCQQWNSYPLTFGAGTKLELK | ≥ 30 | ≥ 60
6 | antibody 42 (antibody, V domains shown, mouse IgG, kappa light chain; also called clone #42; purified antibody 42) VH: QVTLKESGPGILQPSQTLSLTCSLSGFSLSTFGRGVGWIRQPSGKGLEWLAHIWWDDEKYYNPALKSRLTISKDTSKNQVFLRIANVDTADTATYYCARIQNYGSNYWYFDVWGTGTTVTVSS VL: LIVLTQSPAIMSASPGEKVTMTCGATSRISYMFWYQQKPGSSPRVLIYDTSNLASGVPVRFSGSGSGTSYSLTISRVEAEDVATYYCQQWNSYPLTFGAGTKLELK | ≥ 30 | ≥ 30
7 | antibody 44 (antibody, V domains shown, mouse IgG, kappa light chain; also called clone #44; purified antibody 44) VH: QVTLKESGPGILQPSQTLSLTCSFSGFSLSTFGMGVGWIRQPSEKGLEWLAHIWWDDDKYYNPALKSRLTISKDTSKNQIFLKITNVDTAETATYYCSRIGNYGSNYWYFDVWGTGTTVTVSS VL: QIVLTQSPAVMSASPGEKVTMTCTASSSVYYMYWYQQTPGSSPRLLIYDTSNLASGVPVRFSGSGSGTSYSLTISRMEAEDAATYYCQQWNTYPLTFGAGTKLELK | ≥ 30 | ≥ 30
8 | antibody 43 (antibody, V domains shown, mouse IgG, kappa light chain; also called clone #43; purified antibody 43) VH: QVALKESGPGILQPSQTLSLTCSFSGFSLSTFGMGVGWIRQSSGKGLEWLANIWWDDDKYYNPALKSRLTISKDASKNQAFLKIANVDTADTATYYCARIGNYGSNYWYFDVWGTGTTVTVSS VL: QIVLTQSPAIMSASPGERVTMTCSANSRISYMYWYQQKPGSSPRLLIYDTSNLASGVPVRFSGSGSGTSYSLTISRMEAEDAATYNCQQWSSYPLTFGAGTKLELK | ≥ 30 | ≥ 30
9 | antibody 22 (antibody, V domains shown, mouse IgG, kappa light chain; also called clone #22; purified antibody 22) VH: QVTLKESGPGILQPSQTLSLTCSFSGFSLSTFGMGVGWIRQPSGKGLEWLAHIWWDDEKYYNSALKSRLTISKATSKNQVFLKIANVDTADTATYYCARISNYGSNYWYFNVWGTGTTVTVSS VL: QVVLTQSPALMSASPGEKVTMTCSAGSSVSYMYWYQQKPGSSPRVLIYDTSNLASGVPARFTGSGSGTSYSLTISRMEAEDAATYYCQQWNSYPLTFGAGTKLELK | ≥ 30 | ≥ 30
